From patent US12291727B2, “Method for producing stem cell-derived lacrimal gland tissue” (Osaka University, priority 2018, dated 2025)

Test system: CD200−, SSEA4+, and CD104+ ocular surface stem cells
Assay: Three-dimensional culture for induction of lacrimal gland organoids from iPS cell-derived ocular surface stem cells
Format: cell-based, Human
Details: for promoting lacrimal gland differentiation: 3D culture in Matrigel, 20 ng/mL KGF, 100 ng/mL FGF10, 100 ng/mL BMP7 or 10 μM Y-27632, each plus 10 ng/mL EGF, FIG. 5A
Experimental: The obtained ocular surface stem cells were seeded on PrimeSurface (registered trademark) 96U plates (Sumitomo Bakelite Co., Ltd.) at 50,000 cells/spheroid in DMEM/F-12 with B27 supplement containing 10 μM Y-27632 and 20 ng/mL KGF and cultured for 1 day to form spheroids (diameter: about 560 μm). The spheroids were embedded in Matrigel GFR (Corning) and cultured in DMEM/F-12 with B27 supplement containing 10 μM Y-27632, 10 ng/mL EGF, and 100 ng/mL TGF-β3 for 2 weeks.
Three-dimensional culture was performed as described in Example 2 in the presence of 10 ng/mL EGF, 10 ng/mL EGF plus 10 μM Y-27632, or 10 ng/mL EGF plus another growth factor reportedly involved in lacrimal gland differentiation, namely, 20 ng/mL KGF, 100 ng/mL FGF10, or 100 ng/mL BMP7.
Similarly, three-dimensional culture was performed in DMEM/F-12 with B27 supplement, 10 ng/mL EGF, and 10 μM Y-27632 containing 100 ng/mL TGF-β1, β2, or β3.
Three-dimensional culture was performed as described in Example 2 in a medium with 10 ng/mL EGF and 10 μM Y-27632 containing 4, 20, or 100 ng/mL TGF-β3.
RNA was collected from each sample using QIAzol Lysis Reagent and subjected to gene expression analysis as described in Example 3.

`C[C@@H](N)[C@H]1CC[C@H](C(=O)Nc2ccncc2)CC1` [Y-27632, N-(4-pyridinyl)-4β-[(R)-1-aminoethyl]cyclohexane-1α-carboamide, reference compound] was tested, and the “promoting lacrimal gland differentiation” value was “remarkably promoted lacrimal gland differentiation”.

For TGF-β, the “maturation of the lacrimal gland structure” value (100 ng/mL TGF-β1, β2 or β3 in medium with 10 ng/mL EGF and 10 μM Y-27632, FIG. 5B) was “helped further maturation of the lacrimal gland structure”.

B1: BMP7: growth factor reportedly involved in lacrimal gland differentiation (protein, UniProt P18075 293-431, looked up)
Bone morphogenetic protein 7: STGSKQRSQNRSKTPKNQEALRMANVAENSSSDQRQACKKHELYVSFRDLGWQDWIIAPEGYAAYYCEGECAFPLNSYMNATNHAIVQTLVHFINPETVPKPCCAPTQLNAISVLYFDDSSNVILKKYRNMVVRACGCH
For B1, the “promoting lacrimal gland differentiation” value was “less effective”.

B2: TGF-β3: TGF-β subtype added to the medium to promote cell maturation (protein, UniProt P10600 301-412, looked up)
Transforming growth factor …: ALDTNYCFRNLEENCCVRPLYIDFRQDLGWKWVHEPKGYYANFCSGPCPYLRSADTTHSTVLGLYNTLNPEASASPCCVPQDLEPLTILYYVGRTPKVEQLSNMVVKSCKCS
modifications: Transforming growth factor beta-3
notes: TGF-β subtype added to the medium to promote cell maturation
With B2 the “maturation (morphology and gene expression)” value (4 ng/mL TGF-β3 in medium with 10 ng/mL EGF and 10 μM Y-27632, FIGS. 6A, 6B) was “maturation was promoted to some extent” and the “extent of maturation, concentration dependence” value (4, 20 or 100 ng/mL TGF-β3 in medium with 10 ng/mL EGF and 10 μM Y-27632) was “increased in a TGF-β3 concentration dependent manner”.

B3: FGF10: growth factor reportedly involved in lacrimal gland differentiation (protein, UniProt O15520 38-208, looked up)
Fibroblast growth factor 10: QALGQDMVSPEATNSSSSSFSSPSSAGRHVRSYNHLQGDVRWRKLFSFTKYFLKIEKNGKVSGTKKENCPYSILEITSVEIGVVAVKAINSNYYLAMNKKGKLYGSKEFNNDCKLKERIEENGYNTYASFNWQHNGRQMYVALNGKGAPRRGQKTRRKNTSAHFLPMVVHS
B3 was tested, and the “promoting lacrimal gland differentiation” value was “less effective”.

B4: KGF: keratinocyte growth factor, growth factor reportedly involved in lacrimal gland differentiation (protein, UniProt P21781 32-194, looked up)
Fibroblast growth factor 7: CNDMTPEQMATNVNCSSPERHTRSYDYMEGGDIRVRRLFCRTQWYLRIDKRGKVKGTQEMKNNYNIMEIRTVAVGIVAIKGVESEFYLAMNKEGKLYAKKECNEDCNFKELILENHYNTYASAKWTHNGGEMFVALNQKGIPVRGKKTKKEQKTAHFLPMAIT
With B4 the “promoting lacrimal gland differentiation” value was “less effective”.
